Source: patent publication US8586357B2, “Markers of definitive endoderm” (ViaCyte, Inc., priority 2003, dated 2013)

Assays:
hESCs (hESCyt-25) = experiment: Q-PCR gene expression assay of marker genes in differentiating hESCs; format: cell-based, human; conditions: for suppression of AFP gene expression: in comparison to no treatment (10% FBS alone), FIG. 8A
Experimental: In the following experiments, real-time quantitative RT-PCR (Q-PCR) was the primary assay used for screening the effects of various treatments on HESC differentiation. In particular, real-time measurements of gene expression were analyzed for multiple marker genes at multiple time points by Q-PCR. Marker genes characteristic of the desired as well as undesired cell types were evaluated to gain a better understanding of the overall dynamics of the cellular populations. The strength of Q-PCR analysis includes its extreme sensitivity and relative ease of developing the necessary markers, as the genome sequence is readily available. Furthermore, the extremely high sensitivity of Q-PCR permits detection of gene expression from a relatively small number of cells within a much larger population. In addition, the ability to detect very low levels of gene expression provides indications for “differentiation bias” within the population. The bias towards a particular differentiation pathway, prior to the overt differentiation of those cellular phenotypes, is unrecognizable using immunocytochemical techniques. […] Additionally, Q-PCR provides a mechanism by which to evaluate the success of a differentiation protocol in a quantitative format at semi-high throughput scales of analysis.
The approach taken here was to perform relative quantitation using SYBR Green chemistry on a Rotor Gene 3000 instrument (Corbett Research) and a two-step RT-PCR format. Such an approach allowed for the banking of cDNA samples for analysis of additional marker genes in the future, thus avoiding variability in the reverse transcription efficiency between samples.
Primers were designed to lie over exon-exon boundaries or span introns of at least 800 bp when possible, as this has been empirically determined to eliminate amplification from contaminating genomic DNA.
We routinely used Q-PCR to measure the gene expression of multiple markers of target and non-target cell types in order to provide a broad profile description of gene expression in cell samples. The markers relevant for the early phases of hESC differentiation (specifically ectoderm, mesoderm, definitive endoderm and extra-embryonic endoderm) and for which validated primer sets are available are provided below in Table 1. […] This is an important fact since the hESCs were often grown on mouse feeder layers. Most typically, triplicate samples were taken for each condition and independently analyzed in duplicate to assess the biological variability associated with each quantitative determination.
To generate PCR template, total RNA was isolated using RNeasy (Qiagen) and quantitated using RiboGreen (Molecular Probes). Reverse transcription from 350-500 ng of total RNA was carried out using the iScript reverse transcriptase kit (BioRad), which contains a mix of oligo-dT and random primers. Each 20 μL reaction was subsequently diluted up to 100 μL total volume and 3 μL was used in each 10 μL Q-PCR reaction containing 400 nM forward and reverse primers and 5 μL 2×SYBR Green master mix (Qiagen). Two step cycling parameters were used employing a 5 second denature at 85-94° C. (specifically selected according to the melting temp of the amplicon for each primer set) followed by a 45 second anneal/extend at 60° C. Fluorescence data was collected during the last 15 seconds of each extension phase. A three point, 10-fold dilution series was used to generate the standard curve for each run and cycle thresholds (Ct's) were converted to quantitative values based on this standard curve. The quantitated values for each sample were normalized to housekeeping gene performance and then average and standard deviations were calculated for triplicate samples. At the conclusion of PCR cycling, a melt curve analysis was performed to ascertain the specificity of the reaction. A single specific product was indicated by a single peak at the Tm appropriate for that PCR amplicon. […]

hESCs = experiment: Immunocytochemistry: SOX17, AFP and TM antibody labeling of differentiating hESCs; format: cell-based, human
Description: As described in detail herein, the SOX17 antibody was utilized to specifically examine effects of various treatments and differentiation procedures aimed at the production of SOX17 positive definitive endoderm cells. Other antibodies reactive to AFP, SPARC and Thrombomodulin were also employed to rule out the production of visceral and parietal endoderm (extra-embryonic endoderm).
As evidence that the SOX17 antibody is specific for human SOX17 protein and furthermore marks definitive endoderm, partially differentiated hESCs were co-labeled with SOX17 and AFP antibodies. […] However, AFP and SOX7 are not expressed in definitive endoderm cells at levels detectable by ICC, and thus, they be can employed as negative markers for bonifide definitive endoderm cells. It was shown that SOX17 antibody labels populations of cells that exist as discrete groupings of cells or are intermingled with AFP positive cells. […] Similarly, since parietal endoderm has also been reported to express SOX17, antibody co-labeling with SOX17 together with the parietal markers SPARC and/or Thrombomodulin (TM) can be used to identify the SOX17^+ cells which are parietal endoderm. As shown in FIGS. 6A-C, Thrombomodulin and SOX17 co-labelled parietal endoderm cells were produced by random differentiation of hES cells.
With the SOX17 antibody and Q-PCR tools described above we have explored a number of procedures capable of efficiently programming ESCs to become SOX17^hi/AFP^lo/SPARC/TM^lo definitive endoderm cells. We applied a variety of differentiation protocols aimed at increasing the number and proliferative capacity of these cells as measured at the population level by Q-PCR for SOX17 gene expression and at the level of individual cells by antibody labeling of SOX17 protein.
To determine the effect of TGFβ factor treatment at the individual cell level, a time course of TGFβ factor addition was examined using SOX17 antibody labeling. As previously shown in FIGS. 10A-F, there was a dramatic increase in the relative number of SOX17 labeled cells over time.
In these experiments, hESCs were differentiated by growing in RPMI medium (Invitrogen, Carlsbad, Calif.; cat#61870-036) supplemented with 0.5%, 2.0% or 10% FBS and either with or without 100 ng/mL activin A for 6 days. In addition, a gradient of FBS ranging from 0.5% to 2.0% over the first three days of differentiation was also used in conjunction with 100 ng/mL of activin A. After the 6 days, replicate samples were collected from each culture condition and analyzed for relative gene expression by real-time quantitative PCR. The remaining cells were fixed for immunofluorescent detection of SOX17 protein.

B1: Activin A: growth factor of the TGFβ superfamily, Nodal/Activin subgroup; definitive endoderm inducer (protein, UniProt P08476 311-426, looked up)
Inhibin beta A chain: GLECDGKVNICCKKQFFVSFKDIGWNDWIIAPSGYHANYCEGECPSHIAGTSGSSLSFHSTVINHYRMRGHSPFANLKSCCVPTKLRPMSMLYYDDGQNIIKKDIQNMIVEECGCS
SOX17 gene expression, dose response (hESCs (hESCyt-25); 0, 10, 30 or 100 ng/ml, 3 days adherent then 1, 3 and 5 days suspension culture, FIG. 11): dose-dependently increases | relative levels of CXCR4 gene expression with increasing dose (hESCs (hESCyt-25); 0, 10 or 100 ng/mL, 7 days, FIG. 32): dramatically increased | CXCR4 expression (hESCs (hESCyt-25); 100 ng/mL activin A (A100) vs no exogenous activin A (NF), 6 days, FIG. 26): high | CXCR4 level (hESCs (hESCyt-25); 100 ng/mL activin A, 10% FBS condition, 6 days, FIG. 26): remarkable decrease | mesoderm differentiation (expression of brachyury) (hESCs (hESCyt-25); 100 ng/ml, FIG. 14B): notable suppression | SOX17 induction compared to no factor medium controls (hESCs (hESCyt-25); 4-day time point, 10% serum): 5 fold | expression of brachyury relative to untreated control cultures (hESCs (hESCyt-25); 10 and 30 ng/ml, later time points, FIG. 14B): maintain the expression of brachyury at later time points | SOX17 gene expression relative to the undifferentiated control media (SR20) (hESCs (hESCyt-25); FIG. 7A): increases | difference in the level of SOX17 mRNA expression, Activin A vs retinoic acid treated hESCs (hESCs (hESCyt-25); FIG. 7A): 10 fold | expression of the visceral endoderm marker AFP, dose response (hESCs (hESCyt-25); FIG. 13A): dose-dependent decrease | expression of the neural marker ZIC1 (hESCs (hESCyt-25); FIG. 14A): not a dose-dependent effect | expression of MIXL1, GATA4 and HNF3b, dose response (hESCs (hESCyt-25); FIGS. 12A-C): dose-dependent increases | expression of SOX7 (primitive endoderm) and SPARC (parietal endoderm) (hESCs (hESCyt-25); FIGS. 13B-C): remain either unchanged or exhibit suppression at some time points | induction of SOX17 gene expression vs. undifferentiated hESCs (hESCs (hESCyt-25); day 4 of differentiation, Activin A at 100 ng/ml, medium with 10% serum, FIG. 19): 19 fold | SOX17 gene expression and cell number (hESCs (hESCyt-25); doses of 100 ng/mL or more): potently inducing | suppression of AFP gene expression (hESCs (hESCyt-25)): 6.8 fold | suppression of AFP gene expression (hESCs (hESCyt-25); listed as activin A): approximately 7 fold | difference in SOX17 antibody-labeled cell number, Activin A vs retinoic acid treated hESCs (hESCs; FIG. 7B): 10 fold | SOX17+ cell number, dose response (hESCs; FIG. 22): dose-dependent increase | frequency of SOX17+ cells (hESCs; high dose activin A, FBS at 10% (v/v), 6 days): much lower frequency | distribution of SOX17+ cells in the culture (hESCs; high dose activin A, low FBS concentration (0.5%-2.0%), 6 days): ubiquitously distributed
